Laboratory results reported in paper PMC10397247.

What was measured:
Assay in all cases: two-hybrid library CCmax;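 further: natural log of median RNA to DNA barcode read ratio; higher means stronger binding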
4H2473-AA = biological target: T1, 4H2473-AA
T1 chain: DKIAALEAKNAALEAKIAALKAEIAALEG

4H2649-AA = biological target: T2, 4H2649-AA; conditions: mean of both orientations
T2 chain: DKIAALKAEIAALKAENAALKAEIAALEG

4H2698-AA = biological target: T3, 4H2698-AA; conditions: mean of both orientations
T3 chain: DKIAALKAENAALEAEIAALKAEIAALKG

4H2725-AA = biological target: T4, 4H2725-AA; conditions: mean of both orientations
T4 chain: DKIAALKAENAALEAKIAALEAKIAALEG

4H2865-AA = biological target: T5, 4H2865-AA; conditions: mean of both orientations
T5 chain: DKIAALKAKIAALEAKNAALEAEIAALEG

4H3009-AA = biological target: T6, 4H3009-AA; conditions: mean of both orientations
T6 chain: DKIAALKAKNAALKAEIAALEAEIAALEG

4H3016-AA = biological target: T7, 4H3016-AA; conditions: mean of both orientations
T7 chain: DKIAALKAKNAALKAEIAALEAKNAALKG

4H310-AA = biological target: T8, 4H310-AA; conditions: mean of both orientations
T8 chain: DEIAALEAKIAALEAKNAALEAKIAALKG

4H3120-AA = biological target: T9, 4H3120-AA; conditions: mean of both orientations
T9 chain: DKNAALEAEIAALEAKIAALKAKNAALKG

4H3130-AA = biological target: T10, 4H3130-AA; conditions: mean of both orientations
T10 chain: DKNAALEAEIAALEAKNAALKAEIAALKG

4H3165-AA = biological target: T11, 4H3165-AA; conditions: mean of both orientations
T11 chain: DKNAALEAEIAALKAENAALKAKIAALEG

4H3381-AA = biological target: T12, 4H3381-AA; conditions: mean of both orientations
T12 chain: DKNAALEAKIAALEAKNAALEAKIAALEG

4H3395-AA = biological target: T13, 4H3395-AA; conditions: mean of both orientations
T13 chain: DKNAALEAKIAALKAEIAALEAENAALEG

4H3410-AA = biological target: T14, 4H3410-AA; conditions: mean of both orientations
T14 chain: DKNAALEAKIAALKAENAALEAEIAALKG

4H3590-AA = biological target: T15, 4H3590-AA; conditions: mean of both orientations
T15 chain: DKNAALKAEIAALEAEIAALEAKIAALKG

4H3697-AA = biological target: T16, 4H3697-AA; conditions: mean of both orientations
T16 chain: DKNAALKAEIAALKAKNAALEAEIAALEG

4H3753-AA = biological target: T17, 4H3753-AA; conditions: mean of both orientations
T17 chain: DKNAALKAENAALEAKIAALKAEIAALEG

4H3865-AA = biological target: T18, 4H3865-AA; conditions: mean of both orientations
T18 chain: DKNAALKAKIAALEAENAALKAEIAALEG

4H458-AA = biological target: T19, 4H458-AA; conditions: mean of both orientations
T19 chain: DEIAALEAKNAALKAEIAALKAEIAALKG

4H485-AA = biological target: T20, 4H485-AA; conditions: mean of both orientations
T20 chain: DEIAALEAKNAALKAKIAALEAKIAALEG

4H536-AA = biological target: T21, 4H536-AA; conditions: mean of both orientations
T21 chain: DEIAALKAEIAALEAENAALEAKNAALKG

4H570-AA = biological target: T22, 4H570-AA; conditions: mean of both orientations
T22 chain: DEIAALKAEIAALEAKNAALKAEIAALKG

4H629-AA = biological target: T23, 4H629-AA; conditions: mean of both orientations
T23 chain: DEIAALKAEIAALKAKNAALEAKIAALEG

4H710-AA = biological target: T24, 4H710-AA; conditions: mean of both orientations
T24 chain: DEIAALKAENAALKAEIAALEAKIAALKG

4H745-AA = biological target: T25, 4H745-AA; conditions: mean of both orientations
T25 chain: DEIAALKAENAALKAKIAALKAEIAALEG

4H797-AA = biological target: T26, 4H797-AA; conditions: mean of both orientations
T26 chain: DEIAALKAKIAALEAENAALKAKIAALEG

4H850-AA = biological target: T27, 4H850-AA; conditions: mean of both orientations
T27 chain: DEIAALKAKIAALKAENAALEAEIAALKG

4H891-AA = biological target: T28, 4H891-AA; conditions: mean of both orientations
T28 chain: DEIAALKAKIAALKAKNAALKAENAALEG

4H909-AA = biological target: T29, 4H909-AA; conditions: mean of both orientations
T29 chain: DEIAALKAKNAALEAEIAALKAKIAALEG

4H930-AA = biological target: T30, 4H930-AA; conditions: mean of both orientations
T30 chain: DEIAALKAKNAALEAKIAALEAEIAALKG

4H94-AA = biological target: T31, 4H94-AA; conditions: mean of both orientations
T31 chain: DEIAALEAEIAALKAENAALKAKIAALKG

interaction score (4H2473-AA): 1.2
interaction score (4H2649-AA): -0.843
interaction score (4H2698-AA): 1.68
interaction score (4H2725-AA): 0.607
interaction score (4H2865-AA): -0.67
interaction score (4H3009-AA): 2.07
interaction score (4H3016-AA): 1.52
interaction score (4H310-AA): -0.305
interaction score (4H3120-AA): -0.0619
interaction score (4H3130-AA): -0.173
interaction score (4H3165-AA): -1.43
interaction score (4H3381-AA): -1.15
interaction score (4H3395-AA): -1.43
interaction score (4H3410-AA): -0.429
interaction score (4H3590-AA): 1.18
interaction score (4H3697-AA): -1.54
interaction score (4H3753-AA): -0.919
interaction score (4H3865-AA): -0.611
interaction score (4H458-AA): 1.39
interaction score (4H485-AA): 0.85
interaction score (4H536-AA): -1.67
interaction score (4H570-AA): 1.26
interaction score (4H629-AA): -1.34
interaction score (4H710-AA): 0.747
interaction score (4H745-AA): -1.45
interaction score (4H797-AA): -1.58
interaction score (4H850-AA): -0.625
interaction score (4H891-AA): -1.65
interaction score (4H909-AA): 0.0276
interaction score (4H930-AA): -0.124
interaction score (4H94-AA): -0.873
Binder: DKIAALEAKNAALEAKIAALKAEIAALEG [4H2473-AA]
